Data: PMC3923129
pKd: −log10 of the molar value.

Biological target: sigmaA-RNAP holoenzyme (housekeeping RNA polymerase) (Bacillus subtilis) (UniProt P20429+P37870+P37871+P06224)
Assay: EMSA

sigmaA-RNAP holoenzyme (housekeeping RNA polymerase) (Bacillus subtilis), sequence (P20429 whole entry, chain 1 of 4): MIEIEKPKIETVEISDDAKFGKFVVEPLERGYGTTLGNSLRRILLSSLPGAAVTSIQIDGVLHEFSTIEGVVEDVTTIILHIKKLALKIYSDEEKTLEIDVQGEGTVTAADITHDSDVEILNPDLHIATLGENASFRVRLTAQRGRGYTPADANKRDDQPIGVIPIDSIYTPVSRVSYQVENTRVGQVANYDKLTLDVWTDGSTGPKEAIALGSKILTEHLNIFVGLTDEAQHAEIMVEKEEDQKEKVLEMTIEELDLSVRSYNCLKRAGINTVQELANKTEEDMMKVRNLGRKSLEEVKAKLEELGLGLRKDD
sigmaA-RNAP holoenzyme (housekeeping RNA polymerase) (Bacillus subtilis), sequence (P37870 whole entry, chain 2 of 4): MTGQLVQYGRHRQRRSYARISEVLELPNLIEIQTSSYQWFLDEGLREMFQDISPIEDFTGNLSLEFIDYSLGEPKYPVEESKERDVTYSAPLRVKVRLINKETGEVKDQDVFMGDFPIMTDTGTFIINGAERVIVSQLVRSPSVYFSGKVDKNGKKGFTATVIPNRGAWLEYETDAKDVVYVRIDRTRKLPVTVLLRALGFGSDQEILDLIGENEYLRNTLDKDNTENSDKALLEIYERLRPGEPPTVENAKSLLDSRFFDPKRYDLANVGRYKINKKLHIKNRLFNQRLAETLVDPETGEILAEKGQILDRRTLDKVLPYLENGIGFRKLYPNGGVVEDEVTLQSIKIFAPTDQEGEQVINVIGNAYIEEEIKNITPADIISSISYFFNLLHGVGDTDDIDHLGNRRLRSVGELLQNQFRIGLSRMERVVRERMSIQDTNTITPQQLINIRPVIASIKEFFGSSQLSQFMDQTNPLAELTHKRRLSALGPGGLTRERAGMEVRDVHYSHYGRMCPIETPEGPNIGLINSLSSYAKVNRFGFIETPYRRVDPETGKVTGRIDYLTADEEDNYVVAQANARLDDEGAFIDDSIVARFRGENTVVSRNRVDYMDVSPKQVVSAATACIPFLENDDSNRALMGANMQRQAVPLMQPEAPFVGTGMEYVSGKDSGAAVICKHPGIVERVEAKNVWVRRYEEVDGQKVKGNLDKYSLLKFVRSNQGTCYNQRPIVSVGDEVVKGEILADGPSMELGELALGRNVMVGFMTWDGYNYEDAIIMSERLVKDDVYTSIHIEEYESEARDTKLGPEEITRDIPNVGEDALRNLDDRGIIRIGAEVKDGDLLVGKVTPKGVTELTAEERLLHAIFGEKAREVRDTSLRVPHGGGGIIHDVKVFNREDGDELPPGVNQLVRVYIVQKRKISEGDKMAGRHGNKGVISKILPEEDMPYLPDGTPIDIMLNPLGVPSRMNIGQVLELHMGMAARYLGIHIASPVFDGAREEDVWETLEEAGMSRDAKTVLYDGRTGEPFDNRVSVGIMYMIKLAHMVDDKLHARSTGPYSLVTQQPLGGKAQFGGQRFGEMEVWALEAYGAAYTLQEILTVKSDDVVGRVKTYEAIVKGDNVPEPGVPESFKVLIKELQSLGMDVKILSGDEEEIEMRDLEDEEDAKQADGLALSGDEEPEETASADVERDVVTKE
sigmaA-RNAP holoenzyme (housekeeping RNA polymerase) (Bacillus subtilis), sequence (P37871 whole entry, chain 3 of 4): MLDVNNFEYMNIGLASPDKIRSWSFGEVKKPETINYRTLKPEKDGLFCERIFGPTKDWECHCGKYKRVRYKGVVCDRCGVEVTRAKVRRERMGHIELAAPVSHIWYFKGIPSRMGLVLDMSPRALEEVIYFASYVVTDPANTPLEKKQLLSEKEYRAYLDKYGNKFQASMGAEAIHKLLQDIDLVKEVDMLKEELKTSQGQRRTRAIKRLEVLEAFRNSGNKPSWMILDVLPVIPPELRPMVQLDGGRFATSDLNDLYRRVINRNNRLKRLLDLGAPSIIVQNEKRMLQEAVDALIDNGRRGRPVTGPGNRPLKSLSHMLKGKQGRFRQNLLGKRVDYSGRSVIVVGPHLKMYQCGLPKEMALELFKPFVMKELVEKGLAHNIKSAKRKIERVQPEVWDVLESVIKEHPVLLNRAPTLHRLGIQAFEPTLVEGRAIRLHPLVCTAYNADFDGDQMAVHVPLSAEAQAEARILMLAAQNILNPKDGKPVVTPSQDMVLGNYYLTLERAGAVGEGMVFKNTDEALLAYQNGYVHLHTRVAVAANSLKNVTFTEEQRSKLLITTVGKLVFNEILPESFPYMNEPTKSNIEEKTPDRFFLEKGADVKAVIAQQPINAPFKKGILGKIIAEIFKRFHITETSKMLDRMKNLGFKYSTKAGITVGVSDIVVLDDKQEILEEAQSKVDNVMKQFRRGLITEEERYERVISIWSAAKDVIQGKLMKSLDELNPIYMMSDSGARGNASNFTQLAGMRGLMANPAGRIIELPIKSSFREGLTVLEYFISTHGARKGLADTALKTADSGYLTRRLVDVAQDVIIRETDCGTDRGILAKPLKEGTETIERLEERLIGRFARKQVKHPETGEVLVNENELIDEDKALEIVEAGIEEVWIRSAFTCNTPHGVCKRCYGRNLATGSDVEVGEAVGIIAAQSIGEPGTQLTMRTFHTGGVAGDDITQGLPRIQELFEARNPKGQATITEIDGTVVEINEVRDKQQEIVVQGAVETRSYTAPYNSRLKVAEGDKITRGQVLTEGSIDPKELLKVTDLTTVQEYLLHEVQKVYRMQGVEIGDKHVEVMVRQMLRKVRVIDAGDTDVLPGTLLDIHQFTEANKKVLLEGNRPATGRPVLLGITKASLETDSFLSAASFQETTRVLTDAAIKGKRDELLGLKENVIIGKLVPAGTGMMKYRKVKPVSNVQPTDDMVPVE
sigmaA-RNAP holoenzyme (housekeeping RNA polymerase) (Bacillus subtilis), sequence (P06224 whole entry, chain 4 of 4): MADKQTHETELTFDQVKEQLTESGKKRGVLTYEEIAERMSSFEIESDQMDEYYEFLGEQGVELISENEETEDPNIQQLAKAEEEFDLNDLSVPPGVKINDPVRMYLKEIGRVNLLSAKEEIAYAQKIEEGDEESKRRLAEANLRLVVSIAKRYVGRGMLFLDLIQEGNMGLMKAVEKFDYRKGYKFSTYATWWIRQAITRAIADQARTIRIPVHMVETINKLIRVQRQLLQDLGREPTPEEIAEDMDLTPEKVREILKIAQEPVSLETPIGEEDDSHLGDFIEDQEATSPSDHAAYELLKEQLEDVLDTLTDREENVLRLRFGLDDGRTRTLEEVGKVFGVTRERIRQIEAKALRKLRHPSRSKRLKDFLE

Substance	pKd
6S-2 RNA	6.87
6S-1 RNA	7.00
